Target: soluble HLA-A2 (Homo sapiens, UniProt P04439, D140Y/D185E/D98H/E176V/E277Q/G131W/G231S/I119V/I121R/I166T/I218V/N151K/N90K/P208A/P217A/Q86G/Q94H/R138H/R169H)
Experiment: Appearance of peptides recovered from soluble HLA-A2 of cancer cell lines (ESI-MS/MS)
Conditions: MCF-7, MDA-231, PC3, UCI-107
Text: Cell lines were co-transfected with plasmid HLA-A2/Q10^b and with phβ2m, which conferred resistance to the antibiotic G418 or transfected only with the plasmids sHLA-A2, sHLA-B7 and sHLA-Cw4 that contained the antibiotic resistance. Cells were electroporated by use of a Gene Pulser (Bio-Rad) set at […] 960 μF. Transfected cell clones were selected in G418 antibiotic and screened for those secreting sMHC to the growth medium. […] Color was developed with ABTS (Sigma) catalyzed by streptavidin peroxidase (Sigma).
Cultured cells, expressing the soluble MHC were grown to confluency in 150 mm plates. The culture medium was collected and residual cells were removed by centrifugation. […] The antibodies were coupled to NHS-activated agarose (Pharmacia) or to protein A Sepharose (Sigma) with n-methylpipelimidate (Sigma). The columns were washed with 0.5 M NaCl, 20 mM, Tris pH 8. The MHC molecules were eluted from the column with 0.1 M acetic acid at pH 3. Peptides were separated from the MHC complexes by boiling for five minutes in 10% acetic acid followed by ultra-filtration through a 3 kDa Microcon (Amincon).
The MHC bound peptides were resolved by reverse-phase HPLC on a 0.1 ID fused silica capillaries with length of about 30 cm (J&W) slurry packed with POROS 10 R2 (PerSepetive Biosystems). The capillaries were fitted with electrospray needle made from 36-gauge stainless tubing (Small Parts Inc. Miami Lakes, Fla.). A Rheodyne 9125 HPLC injector fitted with a 20 μl loop was used for loading the column. The peptides were resolved by a relatively long (90 minutes) linear gradient of 5 to 50% acetonitrile with 0.1% acetic acid, at a flow rate of about 1 μl/minute. The flow was electrosprayed directly from the HPLC column into an ion trap mass spectrometer (LCQ, Finnigan). The mass spectrometry analysis was done in the positive ion mode, using repetitively a full MS scan usually between 450 to 1500 atomic mass units (amu) followed by collision-induced decomposition (CID) of the dominant ion selected from the previous MS scan. In some cases the full MS was performed with a narrower mass range to reduce the number of detected peptides. The peptides were identified by comparing their MS and CID data to the calculated MS and CID of the proteins in the Genpept databank (www.ncbi.nlm.nih.gov/genpept) using the Sequest software (obtained from Finnigan, San Jose, Calif.). The number of times each peptide was fragmented by CID was usually limited to two by dynamic exclusion, a feature of the Xcalibur control software the LCQ mass spectrometer (Finnigan).

Molecule | appearance of peptide in soluble HLA-A2 from cell lines of different tissue origin
ALFGALFLA | recovered only from PC3 cells
GVYDGEEHSV [from MAGE XP-2 protein (MAGE-B2)] | detected only in the ovarian cancer cells (UCI-107)
NLTISDVSV [from MUC1] | recovered only from MCF-7 grown without estrogen
SLIGHLQTL [from protein tyrosine posphatase] | detected only in the breast cancer cell MDA-231
SLLGGDVVSV [from TSC-22 related protein] | detected at high level in the two-breast cancer cells (MCF-7 and MDA-231), but was not observed in the ovarian (UCI-107) and the prostate (PC3) cancer cells

System: EL4-HHD cells loaded with the synthetic peptides
Experiment: Cytotoxic T lymphocytes assay after immunization of HHD transgenic mice
Type: in vivo
Conditions: compared to negative control peptide ALLCAPSLL; effector-to-target ratio 50:1 shown
Text: Cells were loaded separately with individual peptides, washed and injected in four groups: 1-p1028 (SEQ ID NO:13) alone, 2-p1258 (SEQ ID NO:24) alone, 3—pool of peptides: p913 (SEQ ID NO:5), p958 (SEQ ID NO:9), p989 of CD59 (SEQ ID NO:11) and p989 of FLI (SEQ ID NO:12), 4—peptides p1031 (SEQ ID NO:14), p1121 (SEQ ID NO:22) and p1068 (SEQ ID NO:16). Unloaded EL4-HHD or targets cells not loaded with the peptides were used as negative controls. An effector-to-target ratio of 50:1 is shown.
Transgenic mice expressing a single chain HLA-A2.1/Db-β2m which are double knockout for H-2 Db and for β2m (HHD mice) were immunized four times intra-peritoneally at 7-day interval with 2×10^6 irradiated (5,000 rad) RMA-S-HHD-B7.1 cells loaded for two hours at 26° C. followed by two hours at 37° C. with 100 μM of the synthetic peptides. Ten days after the last immunization the spleens were removed from the vaccinated mice. Splenocytes were re-stimulated with 100 μM of synthetic peptides for five days. Viable lymphocytes were separated by lympholyte-M (Cadarlane, Homby, Canada) and resuspended in RPMI-HEPES. Cytotoxic activity was measured as in [26] by admixing the lymphocytes at different ratios with 5×10^3 EL4-HHD cells grown in medium containing ^35S methionine and then loaded with the synthetic peptides.
To further evaluate the affinity of the peptides to the HLA-A2 and to obtain some insight into their immunogenic potential, selected peptides were tested for their ability to induce an immune response in HLA-A2 transgenic mice. It was assumed that only peptides that could be effectively presented and remain tightly bound to the cells would be capable of inducing an immune response in these mice. The same synthetic peptides that were used for the FACS analysis were used for immunization of the HHD transgenic mice, which express the human HLA-A2.1/Db-β2m single chain. To immunize the mice, the HHD culture cells were loaded with the different peptides and then injected to the HHD mice. The immune response in the mice was followed by the appearance of CTLs specific for these peptides. Some of the peptides were indeed capable of inducing an immune response, which both authenticate them as MHC bound peptides and gives an indication about their immunogenic potential.

Molecule | lysis of EL4-HHD cells loaded with the peptides by CTLs of immunized HHD mice
ALSDHHIYL [from aldolase A] | significant lysis
FLFDGSPTYVL [from fatty acid synthase] | significant lysis
GLIEKNIEL [from DNA (cytosine-5-)-methyltransferase] | significant lysis
TLWVDPYEV [from BTG2] | significant lysis

System: T1, HLA-A2.1
T1 construct: expressed in transfected cells; host or cells: RMA-S-HHD (murine TAP-2 deficient lymphoma, C57BL/6 origin)
Experiment: Stabilization of cell surface HLA-A2.1 by peptide binding on RMA-S-HHD cells (FACS)
Type: cell-based, human
Conditions: 100 μM peptide, 2 h 26° C. + 2 h 37° C., FACS with W6/32 mAb
Experimental: Synthetic peptides were added to […] RMA-S-HHD cells to a concentration of […] followed by incubation for two hours at 26° C. and two hours at 37° C. […] The HLA-A2.1 peptide derived from gp100 served as a positive control and unloaded RMA-S-HHD cells as a negative control.
RMA-S-HHD cells were washed three times with PBS followed by incubation overnight in FCS-free IMDM medium at 26° C. Synthetic peptides were added to 10^6 cells at a concentration of 100 μM. The cells were incubated for two hours at 26° C. followed by two hours at 37° C. […] (Sigma).
Another approach to ascertain that the identified peptides were indeed MHC bound peptide antigens, their capacity to bind tightly and stabilize cell surface HLA-A2.1 was tested by reconstitution into empty MHC on the surface of RMA-S-HHD cells.

Molecule | binding affinity to MHC by reconstitution and stabilization of empty MHC on the surface of RMA-S-HHD cells
GVYDGEEHSV [from MAGE XP-2 protein (MAGE-B2)] | normal

Target: T2, sHLA-A2 (human)
T2 construct: also called sA2; sMHC-A2
Experiment: sMHC eluate MS, UCI-101
Conditions: not given

Molecule | binding result
GLIEKNIEL (also called p1028) | binds
LLLDVPTAAVQA (also called p1210; p11210) | binds
GLYPGLIWL (also called p1031) | binds
SLLPPTALVGL (also called p1080) | binds
SLLPPDALVGL (also called p1094) | binds
SLSEKTVLL (also called p989 of CD59) | binds
SLWGQPAEA (also called p958) | binds
YLLPAIVHI | binds
GLLGTLVQL (also called p913) | binds
ALSDHHIYL (also called p1068) | binds
SLFPGKLEV (also called p989 of FLI) | binds
FLFDGSPTYVL (also called p1258) | binds
ILDKKVEKV | binds
LLLDVPTAAV (also called p1011) | binds
LLDVPTAAV (also called p898) | binds

Reference: patent US20050053918A1, “Method of identifying peptides capable of binding to MHC molecules, peptides identified thereby and their uses” (priority 2001, published 2005)
